The target in assay [1] is T1, human LILRB4 (human, UniProt Q8NHJ6 22-259, limits assumed).
T1 construct: also called leukocyte immunoglobulin-like receptor subfamily B member 4
Nature of the assay: ELISA.

Assay [2] addresses T1, human LILRB4. As to the kind of experiment: flow cytometry on LILRB4-overexpressing 293T cells, mAb at 2 ug/ml. In general terms: In flow cytometry, cells or beads pass a laser one at a time.
A further assay addresses LILRB5 (human, UniProt O75023 24-458, limits assumed). Nature of the assay: reactivity table, assay not named on the sheet.
Another assay deals with T2, LILRB2 (human, UniProt Q8N423 22-458, limits assumed).
T2 construct: also called leukocyte immunoglobulin-like receptor subfamily B member 2
T2 sequence (Q8N423 22-458 limits assumed): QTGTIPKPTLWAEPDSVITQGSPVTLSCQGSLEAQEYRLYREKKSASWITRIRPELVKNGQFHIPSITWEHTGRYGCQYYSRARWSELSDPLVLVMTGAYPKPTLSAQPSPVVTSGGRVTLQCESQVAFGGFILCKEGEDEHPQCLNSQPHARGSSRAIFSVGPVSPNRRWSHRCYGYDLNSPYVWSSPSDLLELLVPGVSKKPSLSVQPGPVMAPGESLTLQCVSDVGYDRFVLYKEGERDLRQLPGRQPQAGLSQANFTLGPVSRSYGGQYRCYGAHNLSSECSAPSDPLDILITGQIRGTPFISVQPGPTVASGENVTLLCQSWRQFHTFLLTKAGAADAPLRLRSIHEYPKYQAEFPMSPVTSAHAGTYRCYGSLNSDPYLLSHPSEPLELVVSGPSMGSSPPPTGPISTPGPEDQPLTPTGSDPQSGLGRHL
As to the kind of experiment: flow cytometry on LILRB2-overexpressing 293T cells, mAb at 2 ug/ml.

Another assay concerns the target T3, LILRB3 (human, UniProt O75022 24-443, limits assumed).
T3 construct: also called leukocyte immunoglobulin-like receptor subfamily B member 3
As to the kind of experiment: flow cytometry on LILRB3-overexpressing 293T cells, mAb at 2 ug/ml.

The target in assay [3] is T1, human LILRB4. Nature of the assay: reactivity table, assay not named on the sheet.
Assay [4] concerns the target T1, human LILRB4. As to the kind of experiment: ELISA, OD450 against antibody concentration. (In general: In an ELISA, binding on a coated surface is turned into a signal by an enzyme label.)

T3 sequence (O75022 24-443 limits assumed): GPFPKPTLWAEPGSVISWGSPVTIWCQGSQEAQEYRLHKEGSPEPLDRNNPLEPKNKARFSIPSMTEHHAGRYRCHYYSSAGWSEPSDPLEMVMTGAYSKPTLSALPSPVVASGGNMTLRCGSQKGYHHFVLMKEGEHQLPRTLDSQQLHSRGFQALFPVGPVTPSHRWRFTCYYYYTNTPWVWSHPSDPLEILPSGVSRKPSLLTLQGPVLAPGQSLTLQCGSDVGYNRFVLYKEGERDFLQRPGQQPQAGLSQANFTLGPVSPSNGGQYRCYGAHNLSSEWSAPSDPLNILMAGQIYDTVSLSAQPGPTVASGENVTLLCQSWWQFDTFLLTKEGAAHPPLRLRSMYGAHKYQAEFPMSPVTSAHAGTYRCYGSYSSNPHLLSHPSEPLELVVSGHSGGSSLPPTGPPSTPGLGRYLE
Sequence of LILRB5 (O75023 24-458 limits assumed): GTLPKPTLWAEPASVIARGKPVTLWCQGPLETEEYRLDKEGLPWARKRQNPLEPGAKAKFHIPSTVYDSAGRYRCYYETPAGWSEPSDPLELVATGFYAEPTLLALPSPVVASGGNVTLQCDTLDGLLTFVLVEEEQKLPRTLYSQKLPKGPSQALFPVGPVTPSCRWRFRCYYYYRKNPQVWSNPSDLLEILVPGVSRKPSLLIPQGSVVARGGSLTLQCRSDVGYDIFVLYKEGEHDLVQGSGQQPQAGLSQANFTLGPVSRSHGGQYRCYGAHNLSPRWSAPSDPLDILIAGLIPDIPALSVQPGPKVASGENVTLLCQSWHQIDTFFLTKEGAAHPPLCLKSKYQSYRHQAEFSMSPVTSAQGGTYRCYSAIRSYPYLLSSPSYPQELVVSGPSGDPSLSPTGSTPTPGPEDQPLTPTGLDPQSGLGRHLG

B1: anti-LILRB4 rabbit monoclonal antibody #192 (antibody, V domains shown)
VH: EQSLEESGGGLVTPGGTLTLTCTVSGFSLSNNAMSWVRQAPGKGLEWIGVILLAGPTYYASWAKGRFTISKTSTTVDLKITSPTTEDTATYFCAIAIGSRPFALWGQGTLVTISS
VL: ELVLTQTPSSTSAAVGGTVTINCQSSQSVYSNWLSWFQQKPGQPPKPLIYLASTLASGVPSRFSGSGSGTQFTLTISDVQCDDAATYYCQGGYNGNIYTFGGGTEVVVK
notes: Rabbit mAb
As a reminder, the EC50 is the concentration at which the effect is half-maximal. In the assay with human LILRB4 [1], B1 registered an EC50 of 0.14 nM.

B2: anti-LILRB4 rabbit monoclonal antibody #208 (antibody, V domains shown)
VH: EQSVEESGGGLVTPGGTLTLTCTVSGFSLSNNAMSWVRQAPGKGLEWIGVILLSGTTYYASWAKGRFTISKTSTTVDLKITSPTTEDTATYFCAIAIGSRPFALWGQGTLVTISS
VL: ELVMTQTPSSTSAAVGGTVTINCQSSQSVYSNWLSWFQQKPGQPPKPLIYLASTLASGVPSRFSGSGSGTQFTLTISDVQCDDAATYYCQGGYNGNIYTFGGGTEVVVK
notes: Rabbit mAb
In turn, B2 gave an EC50 with human LILRB4 [1] of 0.132 nM.

B3: anti-LILRB4 mAb C84 (antibody, V domains shown)
VH: QIQLVQSGPELKKPGETVKISCKASGYTFTNYGMNWVKQAPGKGLKWMGWINTYTGEPTYADDFKGRFAFSLETSASTAYLQINNLKNEDMATYFCASIYYHTSLWYFDVWGAGTTVTVSS
VL: DVLMTQTPLSLPVSLGDQASISCRSSQNIVHSNGNTYLEWYLQKPGQSPKLLIYRVSNRFSGVPVRFSGSGSGTDFTLKISRVEAEDLGVYYCFQGSHVPLTFGAGTKLELK
notes: Mouse mAb; also called anti-hLILRB4
B3 returned a 50% effective concentration (EC50) with human LILRB4 [1] of 0.568 nM. The “% of cells in the positive gate” value with human LILRB4 [2] amounted to 62.5%.

B4: anti-LILRB4 mAb C201 (antibody, V domains shown)
VH: DVQLQESGPGLVKPSQSLSLTCTVTGYSITSDYAWNWIRQFPGNKLEWMGYISYSGGTSYNPSLKSRISITRDTSKNQFFLQLNSVTTEDTATYYCARLHYGYDYWGLGTTLTVSS
VL: DVLMTQTPLSLPVSLGDQASISCRSSQSIVHSNGNTYLEWYLQKPGQSPKLLIYKVSNRFSGVPDRFSGSGSGTDFTLKISRVEAEDLGVYYCFQGLHVPPTFGGGTKLEIK
notes: Mouse mAb
Regarding B4, the “% of cells in the positive gate” value with human LILRB4 [2] was determined as 38.3%. For the same molecule, the binding result with LILRB5 is reported as “binds”.

B5: anti-LILRB4 mAb C92 (antibody, V domains shown)
VH: QIQLVQSGPELKKPGETVKISCKASGYTFTNYGMNWVKQAPGKGLKWMGWINTYTGEPTYADDFKGRFAFSLETSASTAYLQINNLKNEDMATYFCASIYYHTSLWYFDVWGAGTTVTVSS
VL: DVVMTQTPLSLPVSLGDQASISCRSSQSLVHSNGNTYLHWYLQKPGQSPKLLIYKVSNRFSGVPDRFSGSGSGTDFTLKISRVEAEDLGVYFCSQSTHVPYTFGGGTKLEIK
notes: Mouse mAb
Take B5: the “% of cells in the positive gate” value with human LILRB4 [2] is 44.7%.

B6: anti-LILRB mAb C102 (antibody, V domains shown)
VH: EVQLQQSGPELVKPGASVKISCKTSGYTFTEYTMHWVKQSHGKSLEWIGGINPNNGGTSYNQKFKGKATLTVDKSSSTAYMDLRSLTSEDSAVYYCARYWDYFDYWGQGTTLTVSS
VL: DVLMTQTPLSLPVSLGDQASISCRSSQSIVHSNGNTYLEWFLQKPGQSPKLLIYKVSNRFSGVPDRFSGSGSGTDFTLKISRVEAEDLGVYYCFQGSQIPPTFGGGTKLEIK
notes: mAb against LILRB2
As for B6, the “% of cells in the positive gate” value with LILRB2 was 5.22%.

B7: anti-LILRB4 mAb C53 (antibody, V domains shown)
VH: EVNLEESGGGLVQPGGSMKLSCIASGFTFSNYWMNWVRQSPEKGLEWVAEIRLKYNNYATHYAESVKGRFTISRDDSKSTVYLQMNNLRAEDTGIYYCTGTRYGSSLDYWGQGTSVTVSS
VL: DIVMSQSPSSLAVSVGEKVTMSCKSSQNLFYSTNQKNYLAWYQQKPGQSPKLLIYWASTRESGVPDRFTGSGSGTAFTLTISSVKAEDLAVYYCQQYYNYPLTFGAGTKLELK
notes: Mouse mAb
As to B7, in the assay with human LILRB4 [2], the “% of cells in the positive gate” value amounted to 73.5%.

B8: anti-LILRB mAb C287 (antibody, V domains shown)
VH: QIQLVQSGPELKKPGETVKISCKASGYTFTNYGINWVKQAPGKGLKWMGWINTNTGEPTYAEDFKGRFAFSLETSASTAYLQINNLKNEDTATYFCTRGSAKGGFFYWGQGTLVTVSA
VL: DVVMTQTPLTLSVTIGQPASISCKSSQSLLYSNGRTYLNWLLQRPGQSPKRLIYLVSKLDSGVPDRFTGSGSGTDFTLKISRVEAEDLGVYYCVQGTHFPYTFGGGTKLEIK
notes: mAb against LILRB3
As for B8, in the assay with LILRB3, the “% of cells in the positive gate” value is 55%.

B9: anti-LILRB mAb C290 (antibody, V domains shown)
VH: EVQLLQSGPELVKPGASVKISCRTSGYTFTEYTMHWVKQSHGKSLEWIGGINTNNGGTSYNQKFKGKATLTVDKSSSTAYMELRSLTSEDSAVYYCARDKRSRGELDSTMDYWGQGTSVTVSS
VL: DIVMTQAAPSVPVTPGESVSISCRSSKSLLHSNGNTYLYWFLQRPGQSPQLLIYRMSNLASGVPDRFSGSGSGTAFTLRISRVEAEDVGVYYCMQHLEYPFTFGSGTMLEIK
notes: mAb against LILRB3
In the case of B9, the “% of cells in the positive gate” value with LILRB3 came out at 64%. Besides, the binding result in the assay with LILRB5 and with human LILRB4 [3] was “binds” each time.

B10: anti-LILRB4 rabbit monoclonal antibody #161-1 (antibody, V domains shown)
VH: QSVKESGGRLVTPGTPLTLTCTVSGIDLSVYLMSWVRHSPGKGLEYIGFINSAGITAYATWAKGRFIISKTSTTVDLKVTSPTTEDTATYFCARNWIRLDLWGQGTLVTISS
VL: ELDLTQTPASVSAAVGGTVTISCQSSETIYKNYLSWFQQKPGQPPKLLIYESSKLASGVPSRFSGSGSGTQFTLTISDVQCDDAATYYCLGGYTDGRDTIFGGGTELEIK
notes: Rabbit mAb
Molecule B10 returned an EC50 with human LILRB4 [1] of 0.0691 nM.

B11: anti-LILRB4 rabbit monoclonal antibody #161-2 (antibody, V domains shown)
VH: QSVKESGGRLVTPGTPLTLTCTVSGIDLSVYLMSWVRHSPGKGLEYIGFINSAGITAYATWAKGRFIISKTSTTVDLKVTSPTTEDTATYFCARNWIRLDLWGQGTLVTISS
VL: TQTPASVSAAVGGTVTISCQSSETIYKNYLSWFQQKPGQPPKLLIYESSKLASGVPSRFSGSGSGTQFTLTISDVQCDDAATYYCLGGYTDGRDTIFGGGTEVEIK
notes: Rabbit mAb
B11 displayed a concentration for a half-maximal effect (EC50) with human LILRB4 [1] of 0.084 nM.

B12: anti-LILRB mAb C193 (antibody, V domains shown)
VH: EVQLVESGGGLVQPKGSLRLSCAASGFIFNTYAMNWVRQAPGKGLEWVARIRSKSNKYATYYVDSVKDRFTISRDDSQSMLYLQMNNLKTEDTAMYYCVRDGIWGQGTLVTVSA
VL: DIVMTQSPSSLTVTAGEKVTMSCKSSQSLLNSGNQKNYLTWYHQKPGQPPKLLIYWAFTRESGVPDRFTGSGSGTDFTLTISSVQAEDLAVYYCQNDYSYPLTFGSGTKLEIK
notes: mAb against LILRB2
For the molecule B12, the “% of cells in the positive gate” value with LILRB2 is 15%.

B13: anti-LILRB4 rabbit monoclonal antibody #120 (antibody, V domains shown)
VH: QSLEESGGRLVTPGTPLTLTCTVSGIDLNKYAMTWVRQAPGKGLEYIGFINIVGIAGYATWAKGRFTISKTSTTVDLKVTSPTTEDTATYFCARNWIRLDLWGQGTLVTVSS
VL: ELDLTQTPASVSAAVGGTVTISCQSSESLYKKNYLSWFQQKPGQPPKLLIFEASKLASGVPSRFSGSGSGTQFTLTISDVQCDDAASYYCLGDYTNGRDTTFGGGTEVVVK
notes: Rabbit mAb
B13 came in with an EC50 with human LILRB4 [1] of 0.0795 nM.

B14: anti-LILRB mAb C3 (antibody, V domains shown)
VH: EVQLVESGGGLVQPKGSLKLSCAASGFTFNNYAMNWGRQAPGKGLEWVARIRSKRNNYATHYDDSVKDRFTISRDDSQNMLYLQLNNLKTEDTAMYYCVRDGPYAMDYWGQGTSVTVSS
VL: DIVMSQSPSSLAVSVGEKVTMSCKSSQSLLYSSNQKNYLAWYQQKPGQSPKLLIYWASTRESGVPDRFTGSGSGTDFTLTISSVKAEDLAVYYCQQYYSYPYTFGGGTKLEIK
notes: mAb against LILRB3
For B14, in the assay with LILRB3, the “% of cells in the positive gate” value was 54.2%. Moreover, in the assay with human LILRB4 [3], the binding result is “binds”.

B15: anti-LILRB4 rabbit monoclonal antibody #128-1 (antibody, V domains shown)
VH: EQSVEESEGRLVTPGGSLTLTCTVSGFGLSSWAMAWVRQAPGKGLEWIGIIGVSGKIYYPTWAKGRFTISRTSTTVDLKIASPTTEDTATYFCAREPYGDSLWGQGTLVTISS
VL: ELVMTQTPSPVSAAVGGTVTISCQSSQNISTYLSWYQQKPGQPPKFLIYQASKLASGVSSRFKGSGSGTQFTLTISDVQCDDAASYYCAGWKSYSNDDNDFGGGTEVVVK
notes: Rabbit mAb
Regarding B15, the EC50 came out at 0.0209 µg/mL in the assay with human LILRB4 [4] and 0.139 nM in the assay with human LILRB4 [1].

(Values after patent US20200079851A1 (University of Texas, published 2020).)
